Results taken from US20240384250A1, “FIBROBLAST GROWTH FACTOR 23 MODULATING COMPOUNDS” (THE UAB RESEARCH FOUNDATION, priority 2021, published 2024).
Entries after “also recorded” stand apart in the source; their conditions may differ.

Experiments:
[1] = test system: FGF23 and FGFR1c; test: sKL detection assay (FGF23 coated, Fc-FGFR1c detection); type: binding
Description: Commercially available ELISA plates (Maxisorp) are coated with 5 μg/ml of recombinant FGF23 protein (R&D Systems) and unspecific binding sites are blocked with BSA/Tween20. Wells are incubated with sKL in solution (which can be plasma, serum or cell culture supernatants) for one hour, washed and incubated for one hour with 750 ng/ml of recombinant FGFR1α(IIIc)-Fc (R&D Systems), which is a chimeric protein consisting of the FGFR1 ectodomain and the Fc region of a human IgG. FGFR1 only binds to FGF23 in the presence of sKL, and the formation of this trimeric sandwich complex is then measured by detecting the presence of the Fc domain that is coupled to FGFR1. To do so, wells are washed and incubated with 400 ng/ml of anti-human IgG conjugated to horseradish peroxidase (HRP; Promega). Wells are washed and incubated with HRP substrate. After development for about 30 minutes, reactions are analyzed on a standard plate reader via absorptions at […]. Incubations with recombinant sKL dissolved in PBS at defined concentrations serve as standards that are used as reference values to determine sKL concentrations in the studied human samples. […]
HEK293 cells were plated in 10 cm dishes supplemented with 10% FBS (26140079, Gibco) and I× Pen/Strep (15140122, Gibco). Cells were transfected with appropriate klotho or green fluorescent protein cDNA constructs. After 2 days, clones were selected by using 1 μg/ml of puromycin (A1113803, Gibco). Cells were then split and plated in 10 cm dishes in DMEM supplemented with FBS and puromycin. After 48 hours, cells were lysed in 1 ml of RIPA buffer with the addition of a protease inhibitor (11873580001, Roche) for 30 minutes. The mixture was then centrifuged at 20,000 g for 1 hour to remove all cell debris. Activity assay was run as above in the sKL halflife study. Instead of serum, 20 μl of the indicated cell lysate was used and combined with 80 μl of activity assay buffer.

[2] = test system: FGF1, FGF2, FGF7, FGF19, FGF21; test: Plate-based binding assay, other FGF isoforms coated, FLAG-sKL detected with anti-FLAG HRP; set-up: species or system human; settings: 10 ng FGF coated, 40 ng FLAG-sKL
Description: (§1) Proteins were coated on 96-well plates (MaxiSorp; 439454, Thermo Fisher Scientific), and proteins were added to wells in 100 μl of enzyme-linked immunosorbent assay (ELISA) coating buffer (E107, Bethyl Laboratories) with a lid placed overtop and incubated at 4° C. overnight. Plates were washed 5× with 350 μl of assay buffer (50 mM Tris [pH 7.4], 200 mM NaCl, 0.01% Tween 20) on a 50 TS microplate washer (BioTek). Plates were blocked for 1 hour in 200 μl of assay buffer with 0.5% BSA. Plates were washed as before, and proteins were incubated on plates in 100 μl of assay buffer with 0.5% BSA. Proteins or heparin was incubated in orders described in the respective figure legends. Assays using FLAG-tag-based detection were incubated with anti-FLAG coupled to HRP at 1:20,000, and assays using Fc detection were incubated with anti-human Fc coupled to HRP at 1:10,000. […] Reactions were stopped with ELISA stop solution (E115, Bethyl Laboratories) and analyzed using the Synergy HI plate reader (BioTek) at 450 nm wavelength. […] As a control to remove background absorbance values, wells were coated with an equal amount of BSA to match the amount of protein coated in experimental wells and treated the same as experimental wells. […]

[3] = target: T1, FGFR4 (Homo sapiens, UniProt P22455); test: Plate-based binding assay, FGFR4 coated, FLAG-sKL detected with anti-FLAG HRP; settings: 40 ng FGFR4 coated, 80 ng FLAG-sKL, compared with FGFR1c
T1 construct: Fc-FGFR4 protein (human ectodomain) was immobilized; purchased R&D Systems 685FR050
T1 sequence (P22455 22-369 limits assumed): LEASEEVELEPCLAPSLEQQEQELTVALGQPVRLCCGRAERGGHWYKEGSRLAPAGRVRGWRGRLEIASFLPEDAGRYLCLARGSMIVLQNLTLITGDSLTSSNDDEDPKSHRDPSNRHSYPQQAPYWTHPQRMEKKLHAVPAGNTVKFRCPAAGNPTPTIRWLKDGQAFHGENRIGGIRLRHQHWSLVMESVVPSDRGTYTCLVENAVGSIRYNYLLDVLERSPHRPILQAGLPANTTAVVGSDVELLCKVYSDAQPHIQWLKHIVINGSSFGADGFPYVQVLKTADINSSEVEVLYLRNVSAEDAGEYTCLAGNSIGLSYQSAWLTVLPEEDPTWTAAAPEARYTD
Description: as §1

[4] = test system: FGF21 binding to FGFR isoforms 1c, 2c, 3c, 4; test: Pull-down and plate binding of FGF21 to FGFR isoforms with sKL or heparin; set-up: species or system human
Description: To study the interaction between Fc-tagged FGFR isoforms (Fc-FGFR), FGF isoforms, and sKL, immunoprecipitation studies were conducted. Protein A beads (6501, BioVision) and protein G beads (6511, BioVision) were used at 25 μl of a 50% stock slurry per sample in a total bead volume of 50 μl. Beads were washed 5× in activity buffer (50 mM Tris [pH 7.4], 200 mM NaCl, 0.01% Tween 20). Bead spin-down assays were all performed for 2 minutes at 5000 g. Beads were resuspended in 1 ml of activity buffer in a 1.5-ml snap cap tube. One microgram of Fc-FGFR1 to 4 was incubated with the beads for 1 hour on a bead rotator. Control samples were incubated with 2 μg of anti-FGF antibody instead of Fc-FGFR. […] Samples were analyzed using SDS-PAGE and Western blotting.
Proteins were coated on 96-well plates (MaxiSorp; 439454, Thermo Fisher Scientific), and proteins were added to wells in 100 μl of enzyme-linked immunosorbent assay (ELISA) coating buffer (E107, Bethyl Laboratories) with a lid placed overtop and incubated at 4° C. overnight. […] Reactions were stopped with ELISA stop solution (E115, Bethyl Laboratories) and analyzed using the Synergy HI plate reader (BioTek) at 450 nm wavelength. […] As a control to remove background absorbance values, wells were coated with an equal amount of BSA to match the amount of protein coated in experimental wells and treated the same as experimental wells. […]

B1: sKL: recombinant soluble α-klotho ectodomain, mouse aa 35-982 and human aa 34-981, FLAG- or Strep/His-tagged, purified from HEK293 cells (protein)
chain: EPGDGAQTWARFSRPPAPEAAGLFQGTFPDGFLWAVGSAAYQTEGGWQQHGKGASIWDTFTHHPLAPPGDSRNASLPLGAPSPLQPATGDVASDSYNNVFRDTEALRELGVTHYRFSISWARVLPNGSAGVPNREGLRYYRRLLERLRELGVQPVVTLYHWDLPQRLQDAYGGWANRALADHFRDYAELCFRHFGGQVKYWITIDNPYVVAWHGYATGRLAPGIRGSPRLGYLVAHNLLLAHAKVWHLYNTSFRPTQGGQVSIALSSHWINPRRMTDHSIKECQKSLDFVLGWFAKPVFIDGDYPESMKNNLSSILPDFTESEKKFIKGTADFFALCFGPTLSFQLLDPHMKFRQLESPNLRQLLSWIDLEFNHPQIFIVENGWFVSGTTKRDDAKYMYYLKKFIMETLKAIKLDGVDVIGYTAWSLMDGFEWHRGYSIRRGLFYVDFLSQDKMLLPKSSALFYQKLIEKNGFPPLPENQPLEGTFPCDFAWGVVDNYIQVDTTLSQFTDLNVYLWDVHHSKRLIKVDGVVTKKRKSYCVDFAAIQPQIALLQEMHVTHFRFSLDWALILPLGNQSQVNHTILQYYRCMASELVRVNITPVVALWQPMAPNQGLPRLLARQGAWENPYTALAFAEYARLCFQELGHHVKLWITMNEPYTRNMTYSAGHNLLKAHALAWHVYNEKFRHAQNGKISIALQADWIEPACPFSQKDKEVAERVLEFDIGWLAEPIFGSGDYPWVMRDWLNQRNNFLLPYFTEDEKKLIQGTFDFLALSHYTTILVDSEKEDPIKYNDYLEVQEMTDITWLNSPSQVAVVPWGLRKVLNWLKFKYGDLPMYIISNGIDDGLHAEDDQLRVYYMQNYINEALKAHILDGINLCGYFAYSFNDRTAPRFGLYRYAADQFEPKASMKHYRKIIDSNGFPGPETLERFCPEEFTVCTECSFFHTRKS
modifications: left off: small tags and cut ends
notes: recombinant soluble α-klotho ectodomain, mouse aa 35-982 and human aa 34-981, FLAG- or Strep/His-tagged, purified from HEK293 cells
- binding in the sKL detection assay, total cell lysates ([1]; lysates of stably transfected HEK293T cells): strong signal
- binding activity relative to Com.sKL ([1]; purified proteins): approximately 7 ×
- binding of FLAG-sKL to other coated FGF isoforms [2]: not observed
- binding of FLAG-sKL to coated FGFR4 [3]: to a lesser extent
- binding of FLAG-sKL to coated FGFR4 ([3]; listed as FLAG-sKL): to a lower extent
- binding of FGF21 to any of the FGFR isoforms [4]: did not mediate binding; also recorded: did not lead to complex formation; also recorded: did not bind any of the FGFR isoforms
